Laboratory results from article PMC4351549.

Target: CeHSP17 protein (small heat shock protein from Caenorhabditis elegans) (Caenorhabditis elegans)
Test: cryo-EM structure; single particle 3D reconstruction, 14,217 particles, images obtained at 4°C, tetrahedral symmetry, 14.5 Å

Question: Which stoichiometry N does the source give for “CeHSP17 protein (small heat shock protein from Caenorhabditis elegans) (natural protein)” here?
Answer: 24 subunits
